# Source: patent US20240377408A1 (ENCODIA, published 2024)
# Ends that are not written are not given here. * marks the point of attachment. Benzoyl(4-SO2NH2) = NS(=O)(=O)c1ccc(C(=O)*)cc1; M65 = not defined here; M67 = not defined here; M75 = not defined here; M76 = not defined here; M88 = not defined here
# Tests used:
# [1] = molecular target: T1, human carbonic anhydrase 2 (wild-type hCAII) (Homo sapiens, UniProt P00918 4-259); test: cell-based or functional assay
# [2] = molecular target: T1, human carbonic anhydrase 2 (wild-type …); test: cell-based or functional assay; remark: listed apart in the source
Binder,"NTM-AAEIR IC50 (µM), colorimetric IC50 assay (pNPA hydrolysis by wild-type hCAII) [1] [µM]","IC50 (µM), hCAII functional assay (p-nitrophenyl acetate hydrolysis) [2] [µM]"
M67-AAEIR (reading uncertain; also: printed as M67-AAEIR) [M67-AAEIR],0.073,
M76-AAEIR (reading uncertain; also: printed as M76-AAEIR) [M76-AAEIR],0.077,
M65-AAEIR (reading uncertain; also: printed as M65-AAEIR) [M65-AAEIR],0.515,
{Benzoyl(4-SO2NH2)}-AAAAE-NH2 (SMILES C[C@H](NC(=O)c1ccc(S(N)(=O)=O)cc1)C(=O)N[C@@H](C)C(=O)N[C@@H](C)C(=O)N[C@@H](C)C(=O)N[C@@H](CCC(=O)O)C(N)=O) [(SAB)AAAAE],,0.0484
{Benzoyl(4-SO2NH2)}-AFAAE-NH2 (SMILES C[C@H](NC(=O)c1ccc(S(N)(=O)=O)cc1)C(=O)N[C@@H](Cc1ccccc1)C(=O)N[C@@H](C)C(=O)N[C@@H](C)C(=O)N[C@@H](CCC(=O)O)C(N)=O) [(SAB)AFAAE],,0.183
{Benzoyl(4-SO2NH2)}-SAAAE-NH2 (SMILES C[C@H](NC(=O)[C@H](C)NC(=O)[C@H](CO)NC(=O)c1ccc(S(N)(=O)=O)cc1)C(=O)N[C@@H](C)C(=O)N[C@@H](CCC(=O)O)C(N)=O) [(SAB)SAAAE],,0.153
{Benzoyl(4-SO2NH2)}-HAAAE-NH2 (SMILES C[C@H](NC(=O)[C@H](C)NC(=O)[C@H](Cc1c[nH]cn1)NC(=O)c1ccc(S(N)(=O)=O)cc1)C(=O)N[C@@H](C)C(=O)N[C@@H](CCC(=O)O)C(N)=O) [(SAB)HAAAE],,0.148

# Second part, the binder after the results:
"NTM-AAEIR IC50 (µM), colorimetric IC50 assay (pNPA hydrolysis by wild-type hCAII) [1] [µM]","IC50 (µM), hCAII functional assay (p-nitrophenyl acetate hydrolysis) [2] [µM]",Binder
0.095,,M88-AAEIR (reading uncertain; also: printed as M88-AAEIR) [M88-AAEIR]
0.067,,M75-AAEIR (reading uncertain; also: printed as M75-AAEIR) [M75-AAEIR]
,0.045,{Benzoyl(4-SO2NH2)}-FAAAE-NH2 (SMILES C[C@H](NC(=O)[C@H](C)NC(=O)[C@H](Cc1ccccc1)NC(=O)c1ccc(S(N)(=O)=O)cc1)C(=O)N[C@@H](C)C(=O)N[C@@H](CCC(=O)O)C(N)=O) [(SAB)FAAAE]
,0.0993,{Benzoyl(4-SO2NH2)}-EAAAE-NH2 (SMILES C[C@H](NC(=O)[C@H](C)NC(=O)[C@H](CCC(=O)O)NC(=O)c1ccc(S(N)(=O)=O)cc1)C(=O)N[C@@H](C)C(=O)N[C@@H](CCC(=O)O)C(N)=O) [(SAB)EAAAE]
,0.0284,{Benzoyl(4-SO2NH2)}-LAAAE-NH2 (SMILES CC(C)C[C@H](NC(=O)c1ccc(S(N)(=O)=O)cc1)C(=O)N[C@@H](C)C(=O)N[C@@H](C)C(=O)N[C@@H](C)C(=O)N[C@@H](CCC(=O)O)C(N)=O) [(SAB)LAAAE]
